Results published in the supplement of paper PMC10065799, “High-throughput profiling of sequence recognition by tyrosine kinases and SH2 domains using bacterial peptide display” (eLife, 2023).

Each sequence was assayed against Hck (UniProt P08631) (assay: phosphorylation enrichment, bacterial display (enrichment ratio); higher = better substrate or ligand; peptides without Tyr show the background).
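Note: 11-residue human phosphosite peptides and single-mutation variants displayed on the E. coli surface, counted by deep sequencing, each peptide's frequency after selection divided by its frequency in the unselected input library; frequency after pTyr selection over input frequency; kinase dosed for 20-30% of maximal phosphorylation in three min.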

Hck, sequence (P08631 whole entry, looked up): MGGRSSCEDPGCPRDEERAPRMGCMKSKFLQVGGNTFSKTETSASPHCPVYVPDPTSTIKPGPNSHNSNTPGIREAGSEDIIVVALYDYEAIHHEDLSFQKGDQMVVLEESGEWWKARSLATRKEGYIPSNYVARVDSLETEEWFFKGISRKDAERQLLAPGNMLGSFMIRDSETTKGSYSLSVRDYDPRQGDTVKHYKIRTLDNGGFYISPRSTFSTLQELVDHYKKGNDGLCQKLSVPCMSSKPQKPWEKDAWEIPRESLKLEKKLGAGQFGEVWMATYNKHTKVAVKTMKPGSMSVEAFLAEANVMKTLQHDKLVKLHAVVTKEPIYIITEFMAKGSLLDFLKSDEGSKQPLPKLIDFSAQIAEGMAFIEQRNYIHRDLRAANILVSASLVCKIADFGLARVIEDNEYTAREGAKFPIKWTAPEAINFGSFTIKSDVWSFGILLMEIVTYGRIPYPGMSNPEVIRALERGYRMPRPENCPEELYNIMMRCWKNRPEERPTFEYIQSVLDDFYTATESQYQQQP

Going from PGQRVYVVAES [SHH_Y316_R321S] to PVDVAYRHGFF [PLEC_Y2967_R2969H_YF], the phosphorylation enrichment falls from 0.748 to 0.553.

First: IGEGTYRTVFK [CDK5_Y15_G16R]
Second: RNVFFYSFLLK [PTEN_Y178_Y174N_YF]
The phosphorylation enrichment of the first is lower: 0.532 for the first, 0.565 for the second.

Going from SLQFEYVHFGG [CDC14A_Y591_S589F_YF] to ILIFHYAKGQP [MPZ_Y82_S78L], the phosphorylation enrichment rises from 0.557 to 0.674.

Going from HISGVYKLPPD [ANGPTL7_Y145_R140H] to KGRAGYTTVAV [RET_Y752], the phosphorylation enrichment falls from 0.718 to 0.337.

Compared with ATARPYRPYII [LRP5_Y1528], PSGPAYRGAVP [ASAH1_Y43_T42A] is higher in phosphorylation enrichment: 0.413 for the first, 0.459 for the second.

First: ARGMEYLASKK [FGFR1_Y613]
Second: RKETFYILSCR [GUCY2C_Y681_T682I]
The phosphorylation enrichment of the first is higher: 0.367 for the first, 0.355 for the second.

First: RLRKYHLGKYL [KLB_Y906_Y906H]
Second: FLTQHYDAEPQ [ANG_Y38_K41E]
The phosphorylation enrichment of the first is lower: 0.253 for the first, 0.534 for the second.

First: TEQDPYNNIVH [MMUT_Y364_R369H]
Second: YSGDCYRIQGR [DDR2_Y741_Y740C]
The phosphorylation enrichment of the first is higher: 0.586 for the first, 0.564 for the second.

Compared with LKEIRYPPFTD [ALDH3B2_Y362_H361R_YF], DQIDTYELSGG [DNM1_Y354] is higher in phosphorylation enrichment: 0.63 for the first, 0.752 for the second.

Compared with NHFKIYNLCAE [PTEN_Y68_YF], WQQQSYLDYGI [CTNNB1_Y30_S33Y] is lower in phosphorylation enrichment: 1.12 for the first, 0.615 for the second.

Going from GLSAPYVKIHL [SYT2_Y309_D307A] to KIVQDYLEKFY [MMP8_Y36_T32I], the phosphorylation enrichment rises from 0.443 to 0.47.

Going from GVRLFYRVRES [RB1_Y454_M457R_YF] to KVGRVYLFLQP [ITGA2B_Y360_E355K], the phosphorylation enrichment rises from 0.375 to 0.462.

First: NRVEIYEKTVE [CYFIP1_Y108]
Second: VPLLEYFRDIF [CDAN1_Y712_YF]
The phosphorylation enrichment of the first is higher: 0.628 for the first, 0.566 for the second.

Compared with DDHFTYSRYPW [LY75_Y888], LVSCTYQLARG [FGFR2_Y608] is lower in phosphorylation enrichment: 6.62 for the first, 0.483 for the second.

First: IHFAIYLLKFS [ARMC9_Y107_YF]
Second: PPSLSYLSFEG [EXOSC3_Y143_A139P]
The phosphorylation enrichment of the first is higher: 0.521 for the first, 0.517 for the second.

Compared with LNARHYGGLTG [PGAM2_Y92_E89A], KVNKIYHPDFI [LIG3_Y767_Y768H] is lower in phosphorylation enrichment: 0.542 for the first, 0.488 for the second.

Work on QSPQLYKQMCI [DARS1_Y253] yielded a phosphorylation enrichment of 0.634.

The sequences below were run against Jak2 (UniProt O60674) in the same assay as above.
Jak2, sequence (O60674 whole entry, looked up): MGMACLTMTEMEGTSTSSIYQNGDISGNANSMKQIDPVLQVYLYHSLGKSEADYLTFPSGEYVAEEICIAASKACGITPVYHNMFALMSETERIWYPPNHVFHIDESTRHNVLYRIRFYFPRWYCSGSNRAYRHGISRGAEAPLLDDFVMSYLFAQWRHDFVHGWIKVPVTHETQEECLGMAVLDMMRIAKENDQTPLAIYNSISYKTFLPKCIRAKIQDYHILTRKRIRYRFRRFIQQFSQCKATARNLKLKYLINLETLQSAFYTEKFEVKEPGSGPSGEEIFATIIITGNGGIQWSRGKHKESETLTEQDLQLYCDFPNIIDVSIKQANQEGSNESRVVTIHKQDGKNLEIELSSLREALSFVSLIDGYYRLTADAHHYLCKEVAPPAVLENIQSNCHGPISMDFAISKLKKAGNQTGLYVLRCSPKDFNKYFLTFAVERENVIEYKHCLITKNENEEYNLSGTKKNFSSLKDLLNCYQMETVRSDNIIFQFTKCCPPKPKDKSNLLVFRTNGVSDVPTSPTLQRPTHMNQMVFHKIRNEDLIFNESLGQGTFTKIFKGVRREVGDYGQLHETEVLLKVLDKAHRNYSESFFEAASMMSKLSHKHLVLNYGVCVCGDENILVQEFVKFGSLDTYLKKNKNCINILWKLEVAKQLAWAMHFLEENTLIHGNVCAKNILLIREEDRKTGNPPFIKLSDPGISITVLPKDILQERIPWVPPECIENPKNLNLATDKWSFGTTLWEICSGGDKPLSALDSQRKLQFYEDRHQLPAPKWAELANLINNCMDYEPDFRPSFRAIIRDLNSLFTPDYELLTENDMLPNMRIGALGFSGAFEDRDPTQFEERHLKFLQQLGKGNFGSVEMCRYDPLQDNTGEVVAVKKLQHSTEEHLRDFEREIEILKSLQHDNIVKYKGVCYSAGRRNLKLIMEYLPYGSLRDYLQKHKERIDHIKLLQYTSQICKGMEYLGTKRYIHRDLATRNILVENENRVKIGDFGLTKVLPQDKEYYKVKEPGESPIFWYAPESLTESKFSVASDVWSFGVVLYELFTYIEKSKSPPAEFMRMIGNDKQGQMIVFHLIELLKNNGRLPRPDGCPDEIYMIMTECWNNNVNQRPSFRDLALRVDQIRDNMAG

Compared with PGQRVYVVAES [SHH_Y316_R321S], PVDVAYRHGFF [PLEC_Y2967_R2969H_YF] is lower in phosphorylation enrichment: 1.07 for the first, 0.511 for the second.

Going from IGEGTYRTVFK [CDK5_Y15_G16R] to RNVFFYSFLLK [PTEN_Y178_Y174N_YF], the phosphorylation enrichment rises from 0.781 to 1.59.

Going from SLQFEYVHFGG [CDC14A_Y591_S589F_YF] to ILIFHYAKGQP [MPZ_Y82_S78L], the phosphorylation enrichment falls from 1.12 to 1.01.

Compared with HISGVYKLPPD [ANGPTL7_Y145_R140H], KGRAGYTTVAV [RET_Y752] is lower in phosphorylation enrichment: 1 for the first, 0.437 for the second.

First: ATARPYRPYII [LRP5_Y1528]
Second: PSGPAYRGAVP [ASAH1_Y43_T42A]
The phosphorylation enrichment of the first is lower: 0.465 for the first, 0.736 for the second.

Compared with ARGMEYLASKK [FGFR1_Y613], RKETFYILSCR [GUCY2C_Y681_T682I] is higher in phosphorylation enrichment: 0.662 for the first, 0.953 for the second.

Compared with RLRKYHLGKYL [KLB_Y906_Y906H], FLTQHYDAEPQ [ANG_Y38_K41E] is higher in phosphorylation enrichment: 0.483 for the first, 0.627 for the second.

First: TEQDPYNNIVH [MMUT_Y364_R369H]
Second: YSGDCYRIQGR [DDR2_Y741_Y740C]
The phosphorylation enrichment of the first is higher: 0.788 for the first, 0.735 for the second.

Going from LKEIRYPPFTD [ALDH3B2_Y362_H361R_YF] to DQIDTYELSGG [DNM1_Y354], the phosphorylation enrichment falls from 2.05 to 0.866.

Going from NHFKIYNLCAE [PTEN_Y68_YF] to WQQQSYLDYGI [CTNNB1_Y30_S33Y], the phosphorylation enrichment rises from 0.577 to 0.842.

First: GLSAPYVKIHL [SYT2_Y309_D307A]
Second: KIVQDYLEKFY [MMP8_Y36_T32I]
The phosphorylation enrichment of the first is higher: 0.994 for the first, 0.719 for the second.

Compared with GVRLFYRVRES [RB1_Y454_M457R_YF], KVGRVYLFLQP [ITGA2B_Y360_E355K] is lower in phosphorylation enrichment: 1.05 for the first, 0.983 for the second.

Compared with NRVEIYEKTVE [CYFIP1_Y108], VPLLEYFRDIF [CDAN1_Y712_YF] is higher in phosphorylation enrichment: 1.27 for the first, 1.41 for the second.

Going from DDHFTYSRYPW [LY75_Y888] to LVSCTYQLARG [FGFR2_Y608], the phosphorylation enrichment falls from 1.13 to 0.983.

Going from IHFAIYLLKFS [ARMC9_Y107_YF] to PPSLSYLSFEG [EXOSC3_Y143_A139P], the phosphorylation enrichment rises from 1.03 to 1.36.

Going from LNARHYGGLTG [PGAM2_Y92_E89A] to KVNKIYHPDFI [LIG3_Y767_Y768H], the phosphorylation enrichment falls from 0.606 to 0.574.

Work on QSPQLYKQMCI [DARS1_Y253] yielded a phosphorylation enrichment of 0.917.
